Here are results for 13 molecules from patent US20250026820A1 (WUHAN YZY BIOPHARMA, published 2025).

Broadly, the EC50 is the concentration giving half of the maximal effect.

Numbering of substitutions follows the chain as printed.

Assay [1] has as its target T1, TGFβ2 protein (GenScript Z03429) (human, UniProt P61812 303-414).
T1 construct: also called human TGF-β2
T1 sequence (looked up): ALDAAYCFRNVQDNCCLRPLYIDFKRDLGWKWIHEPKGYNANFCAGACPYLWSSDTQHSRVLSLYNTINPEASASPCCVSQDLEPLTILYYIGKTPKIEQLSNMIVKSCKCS
The assay can be described thus: ELISA; plate coated with human TGF-β2; antibody titrated; HRP anti-human Fc. As for the experimental part:
(§1) A microplate was coated with 2 μL/well of the human TGF-β1/2/3 protein solution, respectively, at 4° C. overnight; the supernatant was discarded, 300 μL of a blocking solution (PBS containing 3% BSA) was added to each well, and the plate was blocked at 37° C. for 2 h; the antibodies were gradiently diluted, and the diluent was PBS containing 1% BSA. For example, the initial concentration of the antibody dilution was 500 nM, and diluted 10-fold to obtain 8 concentration gradients. The diluted antibody was added to the well of the microplate at 200 μL per well, the plate was left to stand and incubated at room temperature for 2 h, and the supernatant was discarded; the plate was washed for 3 times with 200 μL/well PBST (PBS containing 0.1% Tween 20); a diluted HRP-labeled anti-human Fc secondary antibody (SIGMA, A8667) was added, the secondary antibody was used after a 1:20000 dilution, the diluent was PBS containing 1% BSA, the volume was 100 μL/well, and the plate was incubated at room temperature for 1 h; the plate was washed for 5 times with 200 μL/well PBST; a TMB chromogenic solution (BD, 55214) was added at 100 μL/well for color development at 37° C. for 8 min. 2 M HCl stop solution was added at 100 μL/well. After the addition of the stop solution, the 450 nm values were read using a microplate reader within 30 min. Data were analyzed using GraphPad Prism 6.0 software and avidity fitting was performed to give EC50 values.
A general note: In an ELISA, binding on a coated surface is turned into a signal by an enzyme label.

Assay [2] has as its target T2, TGFβ1 protein (GenScript Z03411) (human, UniProt P01137 279-390).
T2 construct: also called human TGF-β1; TGFβ1 antigen
The assay can be described thus: ELISA; plate coated with human TGF-β1; antibody titrated; HRP anti-human Fc. As for the experimental part:
as §1

In assay [3] the target is T3, TGFβ3 protein (GenScript Z03430) (human, UniProt P10600 301-412).
T3 construct: also called human TGF-β3
T3 sequence (looked up): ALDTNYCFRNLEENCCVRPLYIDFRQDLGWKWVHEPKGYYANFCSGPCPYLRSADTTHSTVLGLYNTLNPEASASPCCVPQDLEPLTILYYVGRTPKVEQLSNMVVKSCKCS
The assay is described as follows: ELISA; plate coated with human TGF-β3; antibody titrated; HRP anti-human Fc. As for the experimental part:
as §1

Assay [4] has as its target T2, TGFβ1 protein (GenScript Z03411). The assay can be described thus: cell-based or functional assay.

T2 sequence (P01137 279-390 limits assumed, one chain of several): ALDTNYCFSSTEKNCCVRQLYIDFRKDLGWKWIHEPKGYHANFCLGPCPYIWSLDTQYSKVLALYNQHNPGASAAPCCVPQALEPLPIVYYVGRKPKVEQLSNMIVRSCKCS

B1: B1F8 anti-TGFβ single domain heavy-chain antibody (variable region, linker peptide, human IgG1 heavy chain constant region) (Fc fusion)
heavy: QVQLVESGGGLVQPGGSLRLSCAASGSIFGVFYMGWFRQAPGKQREMVAISTDDRTSYVDSVKGRFTISRDNAKNTLALQMNSLKPEDTAVYFCNLNQLGTDYWGPGTQVTVSS
notes: also called BIF8; not shown: linker peptide (GGGGS)n, n=1, 2 or 3; human IgG1 heavy chain constant region, GenBank No. AK303185.1
As for B1, the 50% effective concentration (EC50) in assay [1] worked out at 1.42 nM; in assay [2] it was 0.785 nM; in assay [3], 1.29 nM.

B2: B3F3 anti-TGFβ single domain heavy-chain antibody (variable region, linker peptide, human IgG1 heavy chain constant region) (Fc fusion)
heavy: B1 heavy with G16E, A23T, E46D, V59A
notes: not shown: linker peptide (GGGGS)n, n=1, 2 or 3; human IgG1 heavy chain constant region, GenBank No. AK303185.1
Turning to B2, the EC50 in assay [1] is 1.62 nM; in assay [2], 1.48 nM; in assay [3] it was 1.46 nM.

B3: B1B7 anti-TGFβ single domain heavy-chain antibody (variable region, linker peptide, human IgG1 heavy chain constant region) (Fc fusion)
heavy: QVQLVESGGGLVQPGGSLTLSCTASGSMFSFYTMGWYRQATGKQRELVAGISLGGETTYAPSVKDRFTISRDNAKNTVYLQMNSLKPEDTALYNCNAYWGEDYWGQGTQVTVSS
notes: as for B2
Turning to B3, the concentration giving a half-maximal response (EC50) turned out to be 148 nM in assay [1], 7.01 nM in assay [2] and 162 nM in assay [3].

B4: B2C9 anti-TGFβ single domain heavy-chain antibody (variable region, linker peptide, human IgG1 heavy chain constant region) (Fc fusion)
heavy: EVQVVESGGGLVQPGGSLRLSCAASASVFSWSVMGWFRQAPGKQRELVAISSGDRETYADSVKGRFTISRDNAKNTVYLQMDTLKPEDTAVYFCNAYVPVGESRGDYWGQGTQVTVSS
notes: as for B2
As to B4, the EC50 is 1.42 nM in assay [1], 4.83 nM in assay [2] and 1.21 nM in assay [3].

B5: B2C2 anti-TGFβ single domain heavy-chain antibody (variable region, linker peptide, human IgG1 heavy chain constant region) (Fc fusion)
heavy: QLQLVESGGGLVQPGGSLRLSCAGSGIAFSRVTMAWSRQAPGKQRELVALITDGNRSAYVDSVKGRFTISRDNTKKTMSLQMNDLKPEDTAVYYCVATDWVPTRRDYWGQGTQVTVSS
notes: as for B2
B5: the concentration for a half-maximal effect (EC50) in assay [1] turned out to be 1.42 nM; in assay [2], 1.25 nM; in assay [3] it was 1.43 nM.

B6: B1B8-Fc-B1B8 (Fc fusion)
heavy: EVQVVESGGGLVQPGGSLTLSCVASGFAFSFTPMRWVRQAPGKGLEWVSSISIRGDTTDYADSVKGRFTISRDNAKNTLYLQMNSLKPEDTAVYYCSRGSSISTSTERTQGTQVTVSSGGGGSDKTHTCPPCPAPPVAGPSVFLFPPKPKDTLMISRTPEVTCVVVDVSHEAPEVQFNWYVDGVEVHNAKTKPREEQFNSTFRVVSVLTVVHQDWLNGKEYKCKVSNKGLPAPIEKTISKTKGQPREPQVYTLPPSRDELTKNQVSLTCLVKGFYPSDIAVEWESNGQPENNYKTTPPVLDSDGSFFLYSKLTVDKSRWQQGNVFSCSVMHEALHNHYTQKSLSLSPGGGGGSEVQVVESGGGLVQPGGSLTLSCVASGFAFSFTPMRWVRQAPGKGLEWVSSISIRGDTTDYADSVKGRFTISRDNAKNTLYLQMNSLKPEDTAVYYCSRGSSISTSTERTQGTQVTVSS
In the case of B6, in assay [4], the “EC50 of TGF-β1 inhibitory activity (TF-1 cell proliferation)” value turned out to be 0.813 nM.

B7: B2A2 anti-TGFβ single domain heavy-chain antibody (variable region, linker peptide, human IgG1 heavy chain constant region) (Fc fusion)
heavy: EVQVVESGGAAVQPGESLRLSCAASGSIFNTATMGWFRQAPGKQREMVAIITDGGRTNYADSVKGRFTISRDATKNTVYLQMNSLNPGDTAVYYCNALTIVPRSSIYWGQGTQVTVSS
notes: as for B2
As to B7, the EC50 in assay [1] was determined as 1.18 nM; in assay [2], 48 nM; in assay [3], 1.3 nM.

B8: B2H1 anti-TGFβ single domain heavy-chain antibody (variable region, linker peptide, human IgG1 heavy chain constant region) (Fc fusion)
heavy: QLQLVESGGGLVQPGESLRLSCAASGIIFSASTMAWFRQAPGKQRELVALITDGDRTNYADSVKGRFTISRDNAENTVYLQMTELKFEDTAVYYCNAFWLKAYWGQGTQVTVSS
notes: as for B2
Consider B8, for which the EC50 stood at 1.54 nM in assay [1], 130 nM in assay [2] and 1.71 nM in assay [3].

B9: B2G8 anti-TGFβ single domain heavy-chain antibody (variable region, linker peptide, human IgG1 heavy chain constant region) (Fc fusion)
heavy: QVQLVESGGGLVQPGGSLRLSCAASGISFSYYDMGWFRQAPGKQRELVAIVTSGGRTNYADSVKGRFTISRETAKSTMYLQMNSLKSEDTGVYYCNAHWIVTTDYWGQGTQVTVAS
notes: as for B2
Consider B9, for which the EC50 stood at 1.73 nM in assay [1], 1.72 nM in assay [2] and 1.47 nM in assay [3].

B10: B1C5 anti-TGFβ single domain heavy-chain antibody (variable region, linker peptide, human IgG1 heavy chain constant region) (Fc fusion)
heavy: EVQLVESGGGEVRPGGSLRLSCVVSGFTKDYGAIGWFRQAPGQEREGLGCIARKDGDTWSADSVKGRFTISRDNVRNTVYLQMNALKPEDRGVYYCAGDPSALYGCSDRSSEYQYWGQGTQVTVSS
notes: as for B2
As for B10, the concentration for a half-maximal effect (EC50) in assay [1] came out at 1.85 nM; in assay [2] it was 0.442 nM; in assay [3], 0.546 nM.

B11: B1B8 anti-TGFβ single domain heavy-chain antibody (variable region, linker peptide, human IgG1 heavy chain constant region) (Fc fusion)
heavy: EVQVVESGGGLVQPGGSLTLSCVASGFAFSFTPMRWVRQAPGKGLEWVSSISIRGDTTDYADSVKGRFTISRDNAKNTLYLQMNSLKPEDTAVYYCSRGSSISTSTERTQGTQVTVSS
notes: as for B2
With B11, the concentration giving a half-maximal response (EC50) in assay [1] was 0.464 nM; in assay [2], 0.533 nM; in assay [3], 0.817 nM.

B12: B3D2 anti-TGFβ single domain heavy-chain antibody (variable region, linker peptide, human IgG1 heavy chain constant region) (Fc fusion)
heavy: QLQLVESGGGLVQPGGSLTLSCLASGFTFSHYPMSWVRQAPGKGLEWVSVIGSDGAIKHYSDSVKGRFAISRDNAKNTLYLQMNSLKPEDTAVYYCAEGDSRYVRNRARGQGTQVTVSS
notes: as for B2
Take B12: the 50% effective concentration (EC50) in assay [1] worked out at 27.6 nM; in assay [2], 69.2 nM; in assay [3] it was 1.19 nM.

B13: B3D6 anti-TGFβ single domain heavy-chain antibody (variable region, linker peptide, human IgG1 heavy chain constant region) (Fc fusion)
heavy: EVQLVESGGGLVQAGGSLRLSCAASGRSFSSLAVGWFRQPPGKKREIVAAVNWSGTSTYYPDSVKGRFSISRDNTKNTVYLQMNSLKPEDTAVYYCAADPDLRWLKLWGYEYWGQGTQVTVSS
notes: as for B2
Turning to B13, the EC50 in assay [1] is 0.939 nM; in assay [2], 0.747 nM; in assay [3], 1.22 nM.
